Test results taken from patent publication US20070093415A1.
No end group written: not given here. *: point of attachment. Biotin = O=C1N[C@H]2[C@H](CS[C@H]2CCCCC(=O)*)N1

Key:
[1] = biological target: Aβ1-40 amyloid (amyloid form of the Aβ1-40 peptide); test: ELISA on immobilized Aβ1-40 amyloid, streptavidin-alkaline phosphatase detection
[2] = biological target: Aβ1-40 amyloid (amyloid form of the Aβ1-40 peptide); test: ELISA on immobilized Aβ1-40 amyloid, FIG. 5

Q: How did the Kd [1] turn out when Biotin-AECDWGKGGRWRLWPGASGKTEACGP (also: flanking cysteines can form a disulfide bond) was run?
A: 320 nM

Q: Which concentration below which no significant binding was seen [2] does the source give for Biotin-DWGKGGRWRLWPGASGKTEA here?
A: > 5 µM
